Target: commercial recombinant neutrophil elastase (NE) (UniProt P08246)
Assay: cell-based or functional assay

Chain of UniProt P08246 (P08246 30-247 limits assumed): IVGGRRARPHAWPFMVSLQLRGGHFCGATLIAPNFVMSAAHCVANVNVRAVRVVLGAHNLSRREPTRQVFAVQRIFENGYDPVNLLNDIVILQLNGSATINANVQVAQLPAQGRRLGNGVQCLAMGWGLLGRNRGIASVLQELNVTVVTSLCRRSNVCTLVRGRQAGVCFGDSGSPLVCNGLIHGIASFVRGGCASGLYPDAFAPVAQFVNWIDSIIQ

reduction of NE activity (elastase inhibitory activity, chromogenic substrate) at 0.65 µM WT-rhAAT: 75%
Substance: wild type recombinant human alpha-1-antitrypsin (WT-rhAAT) (from UniProt P01009 25-418)

From patent US20230068487A1
